The results in this text go back to publication PMC10396963, “Fibril formation and ordering of disordered FUS LC driven by hydrophobic interactions” (Nature Chemistry, 2023).

This data set concerns the molecule itself. Briefly: atomic force microscopy; film formed from 1.5 uM FUS LC at the air/PBS interface (pH 7.4), 5 h, deposited on a Si wafer and dried; 20 ± 1 °C.

B1: FUS low-complexity domain (FUS LC, 1–163 amino acids) (domain or fragment, human, UniProt P35637 1-163, looked up)
chain: MASNDYTQQATQSYGAYPTQPGQGYSQQSSQPYGQQSYSGYSQSTDTSGYGQSSYSSYGQSQNTGYGTQSTPQGYGSTGGYGSSQSSQSSYGQQSSYPGYGQQPAPSSTSGSYGSSSQSSSYGQPQSGSYSQQPSYGGQQQSYGQQQSYNPPQGYGQQNQYNS
notes: Human FUS (fused in sarcoma), N-terminal QGSY-rich low-complexity domain, amino-acid residues 1-163; For FRAP 5% of the protein carried Cy3 (NHS ester); the AFM and BAM samples were unlabelled; also called fused in sarcoma low-complexity domain; wild-type FUS LC; source: E. coli, purified (solubilised in 8 M urea, Ni-NTA, cleaved with tobacco etch virus protease, exchanged to CAPS pH 11)
As for B1, the binding result was “binds”.
